± gives the standard deviation of the averaged measurements.
B1: library; a variant is named by its letters at N, in order (parent)
chain: GCUGUCACCGGUGCUUGGUACGUUAUAUUCAGCCGGUCUGAUGAGUCUNNNNNNAGACGAAACAGC
B2: library; a variant is named by its letters at N, in order (parent)
chain: GCUGUCACCGAGAAACUGUGAAGUAUAUCUUAAACCUGGGCACUUAAAAGAUAUAUGGAGUUAGUAGUGCAACCUGCUCGGUCUGAUGAGUCCNNNNNNGGACGAAACAGC

Legend:
(6R,S)-folinic acid [1] = variants of: B1; assay: normalized RNA/DNA level without ligand (relative to sTRSVctl = 100) (log10 (% of sTRSVctl)); HEK293T overexpressing SLC46A1; higher = less ribozyme self-cleavage, higher mRNA level; settings: without (6R,S)-folinic acid; ligand present: no
Procedure, shortened: (§1)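 HEK293T cells received ligand, where used, 1 h before being transfected with 4 µg per 6-well well of library plasmids encoding reporter-linked ribozyme switches. After 72 h, RNA was extracted with EDTA and sequenced. RNA level was derived from RNA reads per DNA read, normalized to a spiked-in non-cleaving sequence or the top sequences, then scaled and log-transformed. Values were ×100 then log10, the top set was 25 sequences, and the minimum was 100 DNA reads.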

(6R,S)-folinic acid [2] = variants of: B1; assay: normalized RNA/DNA level with ligand (relative to sTRSVctl = 100) (log10 (% of sTRSVctl)); HEK293T overexpressing SLC46A1; ligand concentration (+) RNA-Seq: 6 mM; higher = less ribozyme self-cleavage, higher mRNA level; settings: with (6R,S)-folinic acid; ligand present: yes
Procedure, shortened: as §1

cyclic di-GMP [3] = variants of: B2; assay: FACS-Seq fitted mean relative fluorescence mCherry/BFP without ligand (log10 relative fluorescence); HEK293T; ligand: cyclic di-GMP (c-di-GMP-II aptamer); higher = higher reporter protein expression; settings: ligand present: no
Experimental: (§2)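 Hammerhead (sTRSV) ribozyme switch libraries with a ligand aptamer grafted on stem I and a randomized N4-6 loop II, cloned into the 3' UTR of mCherry and transiently transfected into HEK293T cells; RNA-Seq 72 h post transfection with ligand added 1 h before transfection; RNA read count / plasmid DNA read count normalized to the non-cleaving sTRSVctl (x100), log10; sequences with >100 DNA reads. FACS-Seq: lentiviral library sorted into 6 bins after 48 h ligand, log-normal fit mean of mCherry/BFP scaled to controls. Printed sequences are partial switch sequences.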

cyclic di-GMP [4] = variants of: B2; assay: normalized RNA/DNA level without ligand (relative to sTRSVctl = 100) (log10 (% of sTRSVctl)); HEK293T; ligand: cyclic di-GMP (c-di-GMP-II aptamer); higher = less ribozyme self-cleavage, higher mRNA level; settings: reporter: mCherry (pCS4076), ligand present: no
Experimental: as §2

cyclic di-GMP [5] = variants of: B2; assay: FACS-Seq fitted mean relative fluorescence mCherry/BFP with ligand (log10 relative fluorescence); HEK293T; ligand: cyclic di-GMP (c-di-GMP-II aptamer); ligand concentration (+) FACS-Seq: 1 mM; higher = higher reporter protein expression; settings: ligand present: yes
Experimental: as §2

cyclic di-GMP [6] = variants of: B2; assay: normalized RNA/DNA level with ligand (relative to sTRSVctl = 100) (log10 (% of sTRSVctl)); HEK293T; ligand: cyclic di-GMP (c-di-GMP-II aptamer); ligand concentration (+) RNA-Seq: 1 mM; higher = less ribozyme self-cleavage, higher mRNA level; settings: reporter: mCherry (pCS4076), ligand present: yes
Experimental: as §2

Variant | normalized RNA/DNA level without ligand (log10) ((6R,S)-folinic acid [1]) | normalized RNA/DNA level with ligand (log10) ((6R,S)-folinic acid [2]) | FACS-Seq fitted mean (log10) (cyclic di-GMP [3]) | normalized RNA/DNA level without ligand (log10) (cyclic di-GMP [4]) | FACS-Seq fitted mean (log10) (cyclic di-GMP [5]) | normalized RNA/DNA level with ligand (log10) (cyclic di-GMP [6])
GUUUGC | 1.951 ± 0.018 | 2.02 ± 0.067 |  |  |  | 
GUUUGG | 1.985 ± 0.015 | 2.03 ± 0.044 |  |  |  | 
AUUUUU | 1.989 ± 0.017 | 2.01 ± 0.029 |  |  |  | 
UUUUAA | 1.973 ± 0.018 | 2.03 ± 0.02 |  |  |  | 
UUUUAU | 2.007 ± 0.016 | 2.02 ± 0.023 |  |  |  | 
UUUUUC | 2.05 ± 0.026 | 2.01 ± 0.026 |  |  |  | 
UUUUUU | 2.017 ± 0.014 | 2.03 ± 0.032 |  |  |  | 
UUUUUA | 2.002 ± 0.0053 | 2.007 ± 0.014 |  |  |  | 
CUUCGG | 2.063 ± 0.0068 | 2.036 ± 0.0089 |  |  |  | 
CUUCGA | 2.053 ± 0.0024 | 2.06 ± 0.038 |  |  |  | 
CUUCGU | 2.053 ± 0.0097 | 2.04 ± 0.048 |  |  |  | 
CUUCGC | 2.067 ± 0.018 | 2.072 ± 0.018 |  |  |  | 
UUUUCG | 1.87 ± 0.018 | 1.998 ± 0.0083 |  |  |  | 
UUUUCC | 2.02 ± 0.022 | 2 ± 0.032 |  |  |  | 
UUUUCU | 2.012 ± 0.011 | 2.01 ± 0.038 |  |  |  | 
UUUUCA | 2.018 ± 0.011 | 2.02 ± 0.041 |  |  |  | 
GUUGCA | 2 ± 0.011 | 2.01 ± 0.038 |  |  |  | 
GUUGCC | 2.0274 ± 0.0015 | 1.998 ± 0.018 |  |  |  | 
CUUCCU | 1.996 ± 0.0085 | 2.02 ± 0.059 |  |  |  | 
GAAACA |  |  | -0.441 ± 0.093 | 1.61 ± 0.023 | -0.185 ± 0.018 | 1.73 ± 0.1
GAACGA |  |  | -0.276 ± 0.045 | 1.46 ± 0.1 | -0.0281 ± 0.066 | 1.64 ± 0.072
GAACGU |  |  | -0.419 ± 0.027 | 1.54 ± 0.095 | -0.133 ± 0.0044 | 1.69 ± 0.092
AAAACG |  |  | -0.442 ± 0.098 | 1.5 ± 0.072 | -0.105 ± 0.12 | 1.71 ± 0.079
CAACCU |  |  | -0.206 ± 0.19 | 1.56 ± 0.069 | -0.0641 ± 0.21 | 1.74 ± 0.096
AAAGUC |  |  | 0.135 ± 0.29 | 1.574 ± 0.0057 | 0.392 ± 0.048 | 1.75 ± 0.1
CAAAUU |  |  | -0.59 ± 0.046 | 1.45 ± 0.12 | -0.349 ± 0.046 | 1.67 ± 0.076
